The record followed here is patent US20260001947A1.

For the test, the target named is human PD-L1 extracellular domain protein displayed on the membrane of MC38-PD-L1 cells (human) (UniProt Q9NZQ7). Nature of the test: flow cytometry on MC38-PD-L1 cells, directly PE-labelled antibody, 0.5 µl; Blank-PE shows 0.13% in the same gate. For orientation: A flow cytometer gives signals particle by particle.
Sequence of human PD-L1 extracellular domain protein displayed on the membrane of MC38-PD-L1 cells (human) (Q9NZQ7 19-238): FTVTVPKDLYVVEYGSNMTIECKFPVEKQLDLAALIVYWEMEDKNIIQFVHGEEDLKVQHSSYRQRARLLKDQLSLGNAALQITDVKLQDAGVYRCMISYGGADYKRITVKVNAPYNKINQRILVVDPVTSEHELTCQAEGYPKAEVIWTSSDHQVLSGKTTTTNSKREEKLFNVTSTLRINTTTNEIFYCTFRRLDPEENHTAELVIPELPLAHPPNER

The substance “PE anti-human PD-L1 (BioLegend, clone number: 29E-2A3) (antibody)” yielded a % of cells in gate M6-2 of 99.4%.
